We go through 27 molecules from PMC5797146 (Scientific Reports, 2018).

By Kd is commonly meant the free concentration of one partner at which half of the binding sites on the other are occupied at equilibrium, for simple one-to-one binding. For orientation: koff means a measure of how fast the partners let go of each other. A high value points to a short-lived complex. For orientation: kon means the second-order rate constant of association.

To fix the notation:
B1: A26.8 VHH Q101K (VHH)
VHH: QVKLEESGGGLVQAGGSLRLSCAASERTFSRYPVAWFRQAPGAEREFVAVISSTGTSTYYADSVKGRFTISRDNAKVTVYLQMNNLKREDTAVYFCAVNSKRTRLQDPNEYDYWGQGTQVTVSS
notes: source: E. coli TG1, periplasmic extract, purified (IMAC, SEC)
B2: A26.8 VHH T58K (VHH)
VHH: QVKLEESGGGLVQAGGSLRLSCAASERTFSRYPVAWFRQAPGAEREFVAVISSTGTSKYYADSVKGRFTISRDNAKVTVYLQMNNLKREDTAVYFCAVNSQRTRLQDPNEYDYWGQGTQVTVSS
notes: as for B1
B3: A26.8 VHH T56R (VHH)
VHH: QVKLEESGGGLVQAGGSLRLSCAASERTFSRYPVAWFRQAPGAEREFVAVISSTGRSTYYADSVKGRFTISRDNAKVTVYLQMNNLKREDTAVYFCAVNSQRTRLQDPNEYDYWGQGTQVTVSS
notes: as for B1
B4: A26.8 VHH T54R (VHH)
VHH: QVKLEESGGGLVQAGGSLRLSCAASERTFSRYPVAWFRQAPGAEREFVAVISSRGTSTYYADSVKGRFTISRDNAKVTVYLQMNNLKREDTAVYFCAVNSQRTRLQDPNEYDYWGQGTQVTVSS
notes: as for B1
B5: A26.8 VHH T56R, Q101K, T103K (VHH)
VHH: QVKLEESGGGLVQAGGSLRLSCAASERTFSRYPVAWFRQAPGAEREFVAVISSTGRSTYYADSVKGRFTISRDNAKVTVYLQMNNLKREDTAVYFCAVNSKRKRLQDPNEYDYWGQGTQVTVSS
notes: as for B1
B6: A26.8 VHH T103K (VHH)
VHH: QVKLEESGGGLVQAGGSLRLSCAASERTFSRYPVAWFRQAPGAEREFVAVISSTGTSTYYADSVKGRFTISRDNAKVTVYLQMNNLKREDTAVYFCAVNSQRKRLQDPNEYDYWGQGTQVTVSS
notes: as for B1
B7: A26.8 VHH S53R (VHH)
VHH: QVKLEESGGGLVQAGGSLRLSCAASERTFSRYPVAWFRQAPGAEREFVAVISRTGTSTYYADSVKGRFTISRDNAKVTVYLQMNNLKREDTAVYFCAVNSQRTRLQDPNEYDYWGQGTQVTVSS
notes: as for B1
B8: A26.8 VHH T103M (VHH)
VHH: QVKLEESGGGLVQAGGSLRLSCAASERTFSRYPVAWFRQAPGAEREFVAVISSTGTSTYYADSVKGRFTISRDNAKVTVYLQMNNLKREDTAVYFCAVNSQRMRLQDPNEYDYWGQGTQVTVSS
notes: as for B1
B9: A26.8 VHH R104W (VHH)
VHH: QVKLEESGGGLVQAGGSLRLSCAASERTFSRYPVAWFRQAPGAEREFVAVISSTGTSTYYADSVKGRFTISRDNAKVTVYLQMNNLKREDTAVYFCAVNSQRTWLQDPNEYDYWGQGTQVTVSS
notes: as for B1
B10: A26.8 VHH T103W (VHH)
VHH: QVKLEESGGGLVQAGGSLRLSCAASERTFSRYPVAWFRQAPGAEREFVAVISSTGTSTYYADSVKGRFTISRDNAKVTVYLQMNNLKREDTAVYFCAVNSQRWRLQDPNEYDYWGQGTQVTVSS
notes: as for B1
B11: A26.8 VHH Q106L (VHH)
VHH: QVKLEESGGGLVQAGGSLRLSCAASERTFSRYPVAWFRQAPGAEREFVAVISSTGTSTYYADSVKGRFTISRDNAKVTVYLQMNNLKREDTAVYFCAVNSQRTRLLDPNEYDYWGQGTQVTVSS
notes: as for B1
B12: A26.8 VHH T56R, Q101K, T103R (VHH)
VHH: QVKLEESGGGLVQAGGSLRLSCAASERTFSRYPVAWFRQAPGAEREFVAVISSTGRSTYYADSVKGRFTISRDNAKVTVYLQMNNLKREDTAVYFCAVNSKRRRLQDPNEYDYWGQGTQVTVSS
notes: also called lead triple mutant; source: E. coli TG1, periplasmic extract, purified (IMAC, SEC)
B13: A26.8 VHH D107R (VHH)
VHH: QVKLEESGGGLVQAGGSLRLSCAASERTFSRYPVAWFRQAPGAEREFVAVISSTGTSTYYADSVKGRFTISRDNAKVTVYLQMNNLKREDTAVYFCAVNSQRTRLQRPNEYDYWGQGTQVTVSS
notes: as for B1
B14: A26.8 VHH Q106W (VHH)
VHH: QVKLEESGGGLVQAGGSLRLSCAASERTFSRYPVAWFRQAPGAEREFVAVISSTGTSTYYADSVKGRFTISRDNAKVTVYLQMNNLKREDTAVYFCAVNSQRTRLWDPNEYDYWGQGTQVTVSS
notes: as for B1
B15: A26.8 VHH T56R, Q101K, T103M (VHH)
VHH: QVKLEESGGGLVQAGGSLRLSCAASERTFSRYPVAWFRQAPGAEREFVAVISSTGRSTYYADSVKGRFTISRDNAKVTVYLQMNNLKREDTAVYFCAVNSKRMRLQDPNEYDYWGQGTQVTVSS
notes: as for B1
B16: A26.8 VHH D107N (VHH)
VHH: QVKLEESGGGLVQAGGSLRLSCAASERTFSRYPVAWFRQAPGAEREFVAVISSTGTSTYYADSVKGRFTISRDNAKVTVYLQMNNLKREDTAVYFCAVNSQRTRLQNPNEYDYWGQGTQVTVSS
notes: as for B1
B17: A26.8 VHH T54Y (VHH)
VHH: QVKLEESGGGLVQAGGSLRLSCAASERTFSRYPVAWFRQAPGAEREFVAVISSYGTSTYYADSVKGRFTISRDNAKVTVYLQMNNLKREDTAVYFCAVNSQRTRLQDPNEYDYWGQGTQVTVSS
notes: as for B1
B18: A26.8 VHH T54W (VHH)
VHH: QVKLEESGGGLVQAGGSLRLSCAASERTFSRYPVAWFRQAPGAEREFVAVISSWGTSTYYADSVKGRFTISRDNAKVTVYLQMNNLKREDTAVYFCAVNSQRTRLQDPNEYDYWGQGTQVTVSS
notes: as for B1
B19: A26.8 VHH T103R (VHH)
VHH: QVKLEESGGGLVQAGGSLRLSCAASERTFSRYPVAWFRQAPGAEREFVAVISSTGTSTYYADSVKGRFTISRDNAKVTVYLQMNNLKREDTAVYFCAVNSQRRRLQDPNEYDYWGQGTQVTVSS
notes: as for B1
B20: A26.8 VHH T56R, T103K (VHH)
VHH: QVKLEESGGGLVQAGGSLRLSCAASERTFSRYPVAWFRQAPGAEREFVAVISSTGRSTYYADSVKGRFTISRDNAKVTVYLQMNNLKREDTAVYFCAVNSQRKRLQDPNEYDYWGQGTQVTVSS
notes: as for B1
B21: A26.8 VHH D107Y (VHH)
VHH: QVKLEESGGGLVQAGGSLRLSCAASERTFSRYPVAWFRQAPGAEREFVAVISSTGTSTYYADSVKGRFTISRDNAKVTVYLQMNNLKREDTAVYFCAVNSQRTRLQYPNEYDYWGQGTQVTVSS
notes: as for B1
B22: A26.8 VHH T56R, T103R (VHH)
VHH: QVKLEESGGGLVQAGGSLRLSCAASERTFSRYPVAWFRQAPGAEREFVAVISSTGRSTYYADSVKGRFTISRDNAKVTVYLQMNNLKREDTAVYFCAVNSQRRRLQDPNEYDYWGQGTQVTVSS
notes: also called lead double mutant; source: E. coli TG1, periplasmic extract, purified (IMAC, SEC)
B23: A26.8 VHH Q106Y (VHH)
VHH: QVKLEESGGGLVQAGGSLRLSCAASERTFSRYPVAWFRQAPGAEREFVAVISSTGTSTYYADSVKGRFTISRDNAKVTVYLQMNNLKREDTAVYFCAVNSQRTRLYDPNEYDYWGQGTQVTVSS
notes: as for B1
B24: A26.8 VHH N109R (VHH)
VHH: QVKLEESGGGLVQAGGSLRLSCAASERTFSRYPVAWFRQAPGAEREFVAVISSTGTSTYYADSVKGRFTISRDNAKVTVYLQMNNLKREDTAVYFCAVNSQRTRLQDPREYDYWGQGTQVTVSS
notes: as for B1
B25: A26.8 VHH T56I (VHH)
VHH: QVKLEESGGGLVQAGGSLRLSCAASERTFSRYPVAWFRQAPGAEREFVAVISSTGISTYYADSVKGRFTISRDNAKVTVYLQMNNLKREDTAVYFCAVNSQRTRLQDPNEYDYWGQGTQVTVSS
notes: as for B1
B26: A26.8 VHH E110Q (VHH)
VHH: QVKLEESGGGLVQAGGSLRLSCAASERTFSRYPVAWFRQAPGAEREFVAVISSTGTSTYYADSVKGRFTISRDNAKVTVYLQMNNLKREDTAVYFCAVNSQRTRLQDPNQYDYWGQGTQVTVSS
notes: as for B1
B27: A26.8 VHH Q106F (VHH)
VHH: QVKLEESGGGLVQAGGSLRLSCAASERTFSRYPVAWFRQAPGAEREFVAVISSTGTSTYYADSVKGRFTISRDNAKVTVYLQMNNLKREDTAVYFCAVNSQRTRLFDPNEYDYWGQGTQVTVSS
notes: as for B1

For the assay, the target named is T1, Clostridium difficile toxin A (Clostridioides difficile …, UniProt P16154).
T1 construct: also called TcdA
Briefly: SPR. Conditions: both partners purified.
On to B1, for which the Kd turned out to be 7.6 nM, the koff amounted to 0.02 s⁻¹ and the kon stood at 2.7e+06 M⁻¹ s⁻¹.
In the same order, the values of B2 are 13.5 nM, 0.033 s⁻¹ and 2.5e+06 M⁻¹ s⁻¹.
Consider B3, for which the affinity, expressed as Kd, was 6.2 nM; the koff was found to be 0.027 s⁻¹; the kon was found to be 4.8e+06 M⁻¹ s⁻¹.
Consider B4, for which the affinity, expressed as Kd, was 13.2 nM; the koff was determined as 0.044 s⁻¹; the kon came out at 3.6e+06 M⁻¹ s⁻¹.
B5 came in with a Kd of 3.2 nM, a koff of 0.047 s⁻¹ and a kon of 1.47e+07 M⁻¹ s⁻¹.
The molecule B6 yielded a Kd of 8.3 nM, an off-rate (koff) of 0.02 s⁻¹ and a kon of 2.5e+06 M⁻¹ s⁻¹.
The molecule B7 showed a Kd of 224 nM. This counts as sub-micromolar.
B8: the Kd was found to be 13.7 nM, the koff was 0.024 s⁻¹ and the kon is 1.8e+06 M⁻¹ s⁻¹.
B9 gave a Kd of 165 nM, a koff of 0.055 s⁻¹ and a kon of 300000 M⁻¹ s⁻¹.
With B10, binding was put at a Kd of 16.3 nM, the off-rate (koff) stood at 0.036 s⁻¹ and the kon came out at 2.4e+06 M⁻¹ s⁻¹.
As to B11, the Kd was 612 nM.
Regarding B12, the Kd turned out to be 2 nM, the koff is 0.024 s⁻¹ and the kon worked out at 1.23e+07 M⁻¹ s⁻¹.
As to B13, the Kd came to 19 nM, the koff was 0.026 s⁻¹ and the kon was 1.4e+06 M⁻¹ s⁻¹.
In turn, B14 had a Kd of 1480 nM.
Turning to B15, the Kd amounted to 2.9 nM, the koff worked out at 0.03 s⁻¹ and the association rate constant (kon) is 1.04e+07 M⁻¹ s⁻¹.
Take B16: the Kd came out at 21.3 nM, the koff amounted to 0.04 s⁻¹ and the kon is 1.9e+06 M⁻¹ s⁻¹.
The corresponding values for B17 are 38.9 nM, 0.069 s⁻¹ and 1.8e+06 M⁻¹ s⁻¹.
The corresponding values for B18 are 35 nM, 0.056 s⁻¹ and 1.6e+06 M⁻¹ s⁻¹.
In the same order, the values of B19 are 5.3 nM, 0.014 s⁻¹ and 2.7e+06 M⁻¹ s⁻¹.
B20 yielded a Kd of 3.4 nM, a koff of 0.029 s⁻¹ and a kon of 8.6e+06 M⁻¹ s⁻¹.
The corresponding values for B21 are 44 nM, 0.071 s⁻¹ and 1.6e+06 M⁻¹ s⁻¹.
The corresponding values for B22 are 2.3 nM, 0.019 s⁻¹ and 8.3e+06 M⁻¹ s⁻¹.
The molecule B23 displayed a Kd of 2320 nM. This counts as single-digit micromolar.
With B24, binding was put at a Kd of 13.9 nM, the off-rate constant (koff) worked out at 0.027 s⁻¹ and the kon was determined as 2e+06 M⁻¹ s⁻¹.
The molecule B25 came in with a Kd of 13.6 nM, a koff of 0.026 s⁻¹ and a kon of 1.9e+06 M⁻¹ s⁻¹.
In the same order, the values of B26 are 33.6 nM, 0.07 s⁻¹ and 2.1e+06 M⁻¹ s⁻¹.
B27 yielded a Kd of 5130 nM.
